From article PMC3310821, “Inactivation of Staphylococcal Phenol Soluble Modulins by Serum Lipoprotein Particles” (PLoS Pathogens, 2012)
Ends that are not written are not given here. * marks the point of attachment. For = O=C*

Biological target: the molecule itself
Assay: SEC; 100 µg/ml PSMα3-FITC on Superdex 200 10/300GL equilibrated with PBS; OD492 nm

B1: FITC-labeled PSMα3 (peptide)
peptide: For-MEFVAKLFKFFKDLLGKFLGNN
modifications: also: FITC label, site not given here
notes: labeled by incubating 1 mg/ml PSMα3 with 100 µg/ml FITC in 0.1 M sodium carbonate buffer pH 9.6; also called PSMα3-FITC
**Q.** Does B1 bind?
**A.** Result: binds
